# Publication PMC3902945 (Nucleic Acids Research, 2013)
# T1: C-terminal His6-tagged SAUDG (S. aureus uracil-DNA glycosylase) (S. aureus, UniProt Q6GJ88 1-218)
# T1 sequence (looked up): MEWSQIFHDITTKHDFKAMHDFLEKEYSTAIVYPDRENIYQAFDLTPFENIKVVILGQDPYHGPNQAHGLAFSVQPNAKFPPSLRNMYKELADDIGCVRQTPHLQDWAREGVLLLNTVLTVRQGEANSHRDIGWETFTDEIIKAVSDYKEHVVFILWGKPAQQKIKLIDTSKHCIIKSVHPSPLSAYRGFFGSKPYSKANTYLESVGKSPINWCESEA
# B1: uracil-DNA glycosylase inhibitor from phage PBS2 (UGI) (natural protein)
# chain: MTNLSDIIEKETGKQLVIQESILMLPEEVEEVIGNKPESDILVHTAYDESTDENVMLLTSDAPEYKPWALVIQDSNGENKIKML
# What was measured:
# Assay in all cases: SPR
# [1] = target: C-terminal His6-tagged SAUDG (S. aureus uracil-DNA glycosylase) (S. aureus) (UniProt Q6GJ88)
# [2] = target: C-terminal His6-tagged human UDG (uracil-DNA glycosylase) (human)
# [3] = target: T1, C-terminal His6-tagged SAUDG (S. aureus …)
molecule,measurement,setting,value
tag-free SAUGI (Staphylococcus aureus uracil-DNA glycosylase inhibitor) (natural protein),Kd,[1],1.2 nM
same,koff,[1],0.00296 s⁻¹
same,kon,[1],2.47e+06 M⁻¹ s⁻¹
same,Kd,[2],2.51 nM
same,koff,[2],0.00124 s⁻¹
same,kon,[2],496000 M⁻¹ s⁻¹
uracil-DNA glycosylase inhibitor from phage PBS2 (UGI) (from UniProt P14739 1-84) (natural protein),Kd,[2],0.189 nM
same,koff,[2],0.00119 s⁻¹
same,kon,[2],6.32e+06 M⁻¹ s⁻¹
B1,Kd,[3],0.685 ± 0.08 nM
same,koff,[3],0.0061 ± 0.00068 s⁻¹
same,kon,[3],8.9e+06 ± 419000 M⁻¹ s⁻¹
